{"source": "the supplement of paper PMC6757056", "parents": {"B1": {"name": "library; a variant is named by its letters at N, in order (parent)", "chain": "GCUGUCACCGAGAAACUGUGAAGUAUAUCUUAAACCUGGGCACUUAAAAGAUAUAUGGAGUUAGUAGUGCAACCUGCUCGGUCUGAUGAGUCCNNNNNNGGACGAAACAGC"}}, "key": {"[1]": {"variants_of": "B1", "assay": "FACS-Seq fitted mean relative fluorescence mCherry/BFP without ligand (log10 relative fluorescence); HEK293T; ligand: cyclic di-GMP (c-di-GMP-II aptamer); higher = higher reporter protein expression", "settings": "ligand present: no", "procedure": "(§1)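 Hammerhead (sTRSV) ribozyme switch libraries with a ligand aptamer grafted on stem I and a randomized N4-6 loop II, cloned into the 3' UTR of mCherry and transiently transfected into HEK293T cells; RNA-Seq 72 h post transfection with ligand added 1 h before transfection; RNA read count / plasmid DNA read count normalized to the non-cleaving sTRSVctl (x100), log10; sequences with >100 DNA reads. FACS-Seq: lentiviral library sorted into 6 bins after 48 h ligand, log-normal fit mean of mCherry/BFP scaled to controls. Printed sequences are partial switch sequences.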"}, "[2]": {"variants_of": "B1", "assay": "normalized RNA/DNA level without ligand (relative to sTRSVctl = 100) (log10 (% of sTRSVctl)); HEK293T; ligand: cyclic di-GMP (c-di-GMP-II aptamer); higher = less ribozyme self-cleavage, higher mRNA level", "settings": "reporter: mCherry (pCS4076), ligand present: no", "procedure": "as §1"}, "[3]": {"variants_of": "B1", "assay": "FACS-Seq fitted mean relative fluorescence mCherry/BFP with ligand (log10 relative fluorescence); HEK293T; ligand: cyclic di-GMP (c-di-GMP-II aptamer); ligand concentration (+) FACS-Seq: 1 mM; higher = higher reporter protein expression", "settings": "ligand present: yes", "procedure": "as §1"}, "[4]": {"variants_of": "B1", "assay": "normalized RNA/DNA level with ligand (relative to sTRSVctl = 100) (log10 (% of sTRSVctl)); HEK293T; ligand: cyclic di-GMP (c-di-GMP-II aptamer); ligand concentration (+) RNA-Seq: 1 mM; higher = less ribozyme self-cleavage, higher mRNA level", "settings": "reporter: mCherry (pCS4076), ligand present: yes", "procedure": "as §1"}}, "note": "± gives the standard deviation of the averaged measurements."}
{"variant": "AAAUUG", "values": [{"measurement": "FACS-Seq fitted mean (log10)", "setting": "[1]", "value": "-0.199 ± 0.011"}, {"measurement": "normalized RNA/DNA level without ligand (log10)", "setting": "[2]", "value": "1.56 ± 0.096"}, {"measurement": "FACS-Seq fitted mean (log10)", "setting": "[3]", "value": "-0.00914 ± 0.051"}, {"measurement": "normalized RNA/DNA level with ligand (log10)", "setting": "[4]", "value": "1.72 ± 0.097"}]}
{"variant": "GAACGU", "values": [{"measurement": "FACS-Seq fitted mean (log10)", "setting": "[1]", "value": "-0.419 ± 0.027"}, {"measurement": "normalized RNA/DNA level without ligand (log10)", "setting": "[2]", "value": "1.54 ± 0.095"}, {"measurement": "FACS-Seq fitted mean (log10)", "setting": "[3]", "value": "-0.133 ± 0.0044"}, {"measurement": "normalized RNA/DNA level with ligand (log10)", "setting": "[4]", "value": "1.69 ± 0.092"}]}
{"variant": "GAACGA", "values": [{"measurement": "FACS-Seq fitted mean (log10)", "setting": "[1]", "value": "-0.276 ± 0.045"}, {"measurement": "normalized RNA/DNA level without ligand (log10)", "setting": "[2]", "value": "1.46 ± 0.1"}, {"measurement": "FACS-Seq fitted mean (log10)", "setting": "[3]", "value": "-0.0281 ± 0.066"}, {"measurement": "normalized RNA/DNA level with ligand (log10)", "setting": "[4]", "value": "1.64 ± 0.072"}]}
{"variant": "GAAAGA", "values": [{"measurement": "FACS-Seq fitted mean (log10)", "setting": "[1]", "value": "-0.392 ± 0.037"}, {"measurement": "normalized RNA/DNA level without ligand (log10)", "setting": "[2]", "value": "1.41 ± 0.11"}, {"measurement": "FACS-Seq fitted mean (log10)", "setting": "[3]", "value": "-0.0161 ± 0.058"}, {"measurement": "normalized RNA/DNA level with ligand (log10)", "setting": "[4]", "value": "1.57 ± 0.11"}]}
{"variant": "GAAAGU", "values": [{"measurement": "FACS-Seq fitted mean (log10)", "setting": "[1]", "value": "-0.387 ± 0.03"}, {"measurement": "normalized RNA/DNA level without ligand (log10)", "setting": "[2]", "value": "1.55 ± 0.044"}, {"measurement": "FACS-Seq fitted mean (log10)", "setting": "[3]", "value": "-0.0693 ± 0.089"}, {"measurement": "normalized RNA/DNA level with ligand (log10)", "setting": "[4]", "value": "1.71 ± 0.095"}]}
{"variant": "AAAGAU", "values": [{"measurement": "FACS-Seq fitted mean (log10)", "setting": "[1]", "value": "0.0924 ± 0.13"}, {"measurement": "normalized RNA/DNA level without ligand (log10)", "setting": "[2]", "value": "1.52 ± 0.037"}, {"measurement": "FACS-Seq fitted mean (log10)", "setting": "[3]", "value": "0.367 ± 0.016"}, {"measurement": "normalized RNA/DNA level with ligand (log10)", "setting": "[4]", "value": "1.71 ± 0.17"}]}
{"variant": "AAAGAC", "values": [{"measurement": "FACS-Seq fitted mean (log10)", "setting": "[1]", "value": "-0.0292 ± 0.22"}, {"measurement": "normalized RNA/DNA level without ligand (log10)", "setting": "[2]", "value": "1.56 ± 0.036"}, {"measurement": "FACS-Seq fitted mean (log10)", "setting": "[3]", "value": "0.33 ± 0.099"}, {"measurement": "normalized RNA/DNA level with ligand (log10)", "setting": "[4]", "value": "1.75 ± 0.09"}]}
{"variant": "GAAGUU", "values": [{"measurement": "FACS-Seq fitted mean (log10)", "setting": "[1]", "value": "-0.118 ± 0.022"}, {"measurement": "normalized RNA/DNA level without ligand (log10)", "setting": "[2]", "value": "1.55 ± 0.072"}, {"measurement": "FACS-Seq fitted mean (log10)", "setting": "[3]", "value": "0.245 ± 0.074"}, {"measurement": "normalized RNA/DNA level with ligand (log10)", "setting": "[4]", "value": "1.7 ± 0.091"}]}
{"variant": "CAAGAA", "values": [{"measurement": "FACS-Seq fitted mean (log10)", "setting": "[1]", "value": "-0.432 ± 0.1"}, {"measurement": "normalized RNA/DNA level without ligand (log10)", "setting": "[2]", "value": "1.23 ± 0.12"}, {"measurement": "FACS-Seq fitted mean (log10)", "setting": "[3]", "value": "-0.059 ± 0.057"}, {"measurement": "normalized RNA/DNA level with ligand (log10)", "setting": "[4]", "value": "1.48 ± 0.13"}]}
{"variant": "UAACUU", "values": [{"measurement": "FACS-Seq fitted mean (log10)", "setting": "[1]", "value": "-0.637 ± 0.031"}, {"measurement": "normalized RNA/DNA level without ligand (log10)", "setting": "[2]", "value": "1.65 ± 0.005"}, {"measurement": "FACS-Seq fitted mean (log10)", "setting": "[3]", "value": "-0.458 ± 0.042"}, {"measurement": "normalized RNA/DNA level with ligand (log10)", "setting": "[4]", "value": "1.79 ± 0.12"}]}
{"variant": "UAACUC", "values": [{"measurement": "FACS-Seq fitted mean (log10)", "setting": "[1]", "value": "-0.459 ± 0.11"}, {"measurement": "normalized RNA/DNA level without ligand (log10)", "setting": "[2]", "value": "1.78 ± 0.016"}, {"measurement": "FACS-Seq fitted mean (log10)", "setting": "[3]", "value": "-0.294 ± 0.11"}, {"measurement": "normalized RNA/DNA level with ligand (log10)", "setting": "[4]", "value": "1.88 ± 0.085"}]}
{"variant": "AAACUA", "values": [{"measurement": "FACS-Seq fitted mean (log10)", "setting": "[1]", "value": "-0.338 ± 0.065"}, {"measurement": "normalized RNA/DNA level without ligand (log10)", "setting": "[2]", "value": "1.49 ± 0.031"}, {"measurement": "FACS-Seq fitted mean (log10)", "setting": "[3]", "value": "-0.0568 ± 0.0064"}, {"measurement": "normalized RNA/DNA level with ligand (log10)", "setting": "[4]", "value": "1.65 ± 0.11"}]}
{"variant": "AAACUG", "values": [{"measurement": "FACS-Seq fitted mean (log10)", "setting": "[1]", "value": "-0.426 ± 0.0086"}, {"measurement": "normalized RNA/DNA level without ligand (log10)", "setting": "[2]", "value": "1.53 ± 0.039"}, {"measurement": "FACS-Seq fitted mean (log10)", "setting": "[3]", "value": "-0.194 ± 0.0073"}, {"measurement": "normalized RNA/DNA level with ligand (log10)", "setting": "[4]", "value": "1.75 ± 0.092"}]}
{"variant": "AAACUC", "values": [{"measurement": "FACS-Seq fitted mean (log10)", "setting": "[1]", "value": "-0.854 ± 0.053"}, {"measurement": "normalized RNA/DNA level without ligand (log10)", "setting": "[2]", "value": "1.706 ± 0.0065"}, {"measurement": "FACS-Seq fitted mean (log10)", "setting": "[3]", "value": "-0.744 ± 0.039"}, {"measurement": "normalized RNA/DNA level with ligand (log10)", "setting": "[4]", "value": "1.83 ± 0.071"}]}
{"variant": "AAACUU", "values": [{"measurement": "FACS-Seq fitted mean (log10)", "setting": "[1]", "value": "-0.199 ± 0.0094"}, {"measurement": "normalized RNA/DNA level without ligand (log10)", "setting": "[2]", "value": "1.646 ± 0.0047"}, {"measurement": "FACS-Seq fitted mean (log10)", "setting": "[3]", "value": "0.118 ± 0.0021"}, {"measurement": "normalized RNA/DNA level with ligand (log10)", "setting": "[4]", "value": "1.82 ± 0.091"}]}
{"variant": "UAAAUA", "values": [{"measurement": "FACS-Seq fitted mean (log10)", "setting": "[1]", "value": "-0.362 ± 0.037"}, {"measurement": "normalized RNA/DNA level without ligand (log10)", "setting": "[2]", "value": "1.654 ± 0.0031"}, {"measurement": "FACS-Seq fitted mean (log10)", "setting": "[3]", "value": "-0.139 ± 0.088"}, {"measurement": "normalized RNA/DNA level with ligand (log10)", "setting": "[4]", "value": "1.78 ± 0.059"}]}
{"variant": "UAAAUG", "values": [{"measurement": "FACS-Seq fitted mean (log10)", "setting": "[1]", "value": "0.102 ± 0.084"}, {"measurement": "normalized RNA/DNA level without ligand (log10)", "setting": "[2]", "value": "1.62 ± 0.0043"}, {"measurement": "FACS-Seq fitted mean (log10)", "setting": "[3]", "value": "0.384 ± 0.037"}, {"measurement": "normalized RNA/DNA level with ligand (log10)", "setting": "[4]", "value": "1.83 ± 0.12"}]}
